Results from the supplement of paper PMC12042874.
± gives the uncertainty stated by the source.

Assay: amyloid nucleation score (Sup35N fusion, yeast selection) (log enrichment); library NNK1; higher = more nucleation; inactive = no reads after selection
Method in brief: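 The nucleation score is the DiMSum log enrichment of output over input reads, centred on the mode score of non-aggregating sequences. Only sequences with 100 or more input reads were scored, using Illumina sequencing of input and output plasmid inserts. Psi-negative yeast expressing Sup35N fused to peptides of 20 random codons were induced 24 hours with 100 μM copper sulfate and grown 7 days at 30°C on medium lacking adenine and uracil.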

Row | Substance | amyloid nucleation score
1 | GSNTFI | 0.243 ± 0.31
2 | LGLMTFFVWFNWG | -1.43 ± 1
3 | GISWSRGWSAFLKCDRRTGC | 0.894 ± 0.8
4 | INFVLMIRMIVSFMNIGRIG | -0.527 ± 1.6
5 | ISYSYVTIIA | -0.181 ± 0.27
6 | NSYVLVNCALLRLGRINVFY | 7.56 ± 0.077
7 | LPDTCCR | 0.994 ± 0.46
8 | ICKDKHAIV | -0.282 ± 0.37
9 | IQALDLDTVFDCC | 6.45 ± 0.088
10 | ELERWLDQKGTLQLEDQTLV | -0.724 ± 2.4
11 | SQRTWCLLGIGSTITRIHFG | 2.74 ± 0.23
12 | LSWFPA | 0.179 ± 0.27
13 | LWDIFFRSLSVLAYNIKMFS | -0.552 ± 1
14 | ECFDANIWFWSCPMVHYG | 0.904 ± 0.19
15 | LVFDGNLETCRQ | 0.164 ± 0.61
16 | WSCKVMRVYRP | 0.295 ± 0.4
17 | MIFSHETSRVIGDPWGPWN | 0.056 ± 0.88
18 | RDDDPYVQDRPLRDFVFKKY | -0.472 ± 0.35
19 | YHTSRYRCTMYMGNSHGAMP | 0.228 ± 0.97
20 | NLILDQVNTYSLCSTIFI | 7.291 ± 0.058
21 | SFEWSSFTYFSNFWWLEPNT | 0.738 ± 0.65
22 | VLKCHSGSCRIYTNDSYVAL | 0.387 ± 0.17

Row | Substance | amyloid nucleation score
23 | LSEEWTIYKFNRRRMKIGRG | 0.707 ± 0.4
24 | YFCAMGNHVLVS | -0.389 ± 0.49
25 | SGTQKNRCTSLMQC | 0.709 ± 0.53
26 | FPLGSFIDLQRDMGIN | 0.53 ± 0.4
27 | WLINTPTHWVFVDIVWYWSK | 0.051 ± 0.84
28 | SRPSQCYINAFMFSMFKSGN | inactive
29 | IKHFGISTR | 0.17 ± 0.79
30 | IGSFDYGSNLGQIYGHNMLK | -0.685 ± 0.6
31 | HSNCVDSRCETARTS | 1.47 ± 0.47
32 | YKNVCSDSVTLRKPGRVVLL | -0.278 ± 0.67
33 | VFHNYFLRTYTNRRARSVSI | 2.86 ± 0.14
34 | DPIRCMCVFMVHPCRCDID | 0.45 ± 1.1
35 | QRRYRDTAGLNRNIRNICSK | -0.257 ± 0.72
36 | FQHLNMVTAFSDSRGIPYML | 1.05 ± 0.38
37 | FPDYQVLLQCYLN | 0.418 ± 0.38
38 | YRPNLLNSLTPTKTSIGSVY | 1.11 ± 0.6
39 | IFNCVVLFSNTFMGYRFPFH | 6.273 ± 0.045
40 | VYSSMIVLKDALIPSSKTDA | 0.999 ± 0.51
41 | VRNWWDDNYSFTHAYLSTDG | 1.01 ± 0.66
42 | VEIGFFQRHKARIFMGTRSL | -0.209 ± 0.34
43 | RGGGAEKLLQSTCNSYVVWL | 3.66 ± 0.061
44 | WTTSVSL | -0.346 ± 0.84

Row | Substance | amyloid nucleation score
45 | KCYLLRKVGCWHQHLDGHFG | -0.429 ± 0.66
46 | HYWDYAISRIR | -1.94 ± 2.4
47 | NPLHTMFTLYEIRQWRLF | -0.048 ± 0.3
48 | RPYGVNR | -0.271 ± 0.66
49 | IVETLCRYCVPRVMVTFVGQ | inactive
50 | IVTALEGYRDYFSEPCIFFM | -0.176 ± 0.32
51 | KDLLYKSIRW | 1.03 ± 0.27
52 | QVFKHGSPGHMLALCQRAV | 1.39 ± 0.63
53 | WASMIHVEFYSNYFL | -0.017 ± 0.72
54 | YCDNDSYH | 1.42 ± 0.44
55 | FVETS | 0.198 ± 0.29
56 | SRFPYKKSVRTDSGRMSM | -0.393 ± 0.86
57 | RHWDIRSGHNLWQMVG | -0.55 ± 0.38
58 | QFYKGRNSFNERSSSNVLRY | inactive
59 | PHQPRILM | -0.387 ± 0.36
60 | TESPRCRVPGVELPD | -0.136 ± 0.67
61 | VGRSQRMQKTLKVSVWYWIN | 0.117 ± 0.7
62 | GPDRLMDILAMPGGYSMLSM | 1.03 ± 0.54
63 | RSQKLGHIGRDTLQWGLYCS | -0.024 ± 0.38
64 | LLNVVCRARVWS | -0.241 ± 0.32
65 | YVFRPLVERDRSLMKLVQQL | inactive
66 | SVSILP | -0.34 ± 0.53

Row | Substance | amyloid nucleation score
67 | WHMVKSVSTNIV | -0.386 ± 0.58
68 | SPCWSHF | inactive
69 | PCCWLPRGDTLDYTQHR | -0.065 ± 0.98
70 | RLNLSLSVR | 0.517 ± 0.55
71 | FIRGDANSLLHYLSDCVRE | 1.37 ± 0.9
72 | ITFKLNMCPILWIPCVACSN | 6.57 ± 0.047
73 | VNEIRT | -0.153 ± 1.2
74 | QRFRTLCNLVFYLGSKVRET | 0.317 ± 0.3
75 | TAYSNG | -0.814 ± 0.74
76 | FDITRGRSTSYLIERRRTWG | 0.79 ± 0.82
77 | QGFRVWKLNTIKRHSWMGFA | 0.772 ± 0.44
78 | HSLLVMQDVCPE | 0.69 ± 0.56
79 | DYKFRDRL | 0.364 ± 0.32
80 | ASTMFQIYVHPNYTISLMLK | 0.44 ± 0.28
81 | VTLAQKLLDF | -0.421 ± 1.1
82 | QKMYDILVIDLYESGDRPFV | 0.532 ± 0.29
83 | LCEVRDCWVL | 0.783 ± 0.41
84 | FNVLCPRRQNLSGVELD | -0.02 ± 0.45
85 | HSWYEELMVVLNISSHGHLD | 0.351 ± 0.52
86 | RRVTCGLQGVLRENR | 0.4 ± 0.46
87 | NESEFLFSKAHRMVVIP | inactive
88 | FKESLGFMFMHDMSWDGLLV | 0.224 ± 0.7
